In experiment [1] the test system is pentasaccharide bound plasma antithrombin (plasma anti-factor Xa activity). Put plainly: Rotachrom heparin anti factor Xa assay in pentasaccharide containing human plasma (competition with plasma antithrombin for pentasaccharide binding). The class given is biochemical. The settings on record: human plasma, pre-incubation 30 min at 37° C. As for the experimental part: Anti factor Xa inhibitory activity of mutated antithrombins AT-R393H(SEQ ID NO: 4), AT-Pro394 (SEQ ID NO: 6), AT-ΔR393-5394 (SEQ ID NO: 18), AT-ΔR393 (SEQ ID NO: 8), AT-ΔS394 (SEQ ID NO: 10), AT-N135Q-R393H(SEQ ID NO: 14), AT-N135Q-Pro394 (SEQ ID NO: 16), AT-N135Q-ΔR393-S394 (SEQ ID NO: 24), AT-N135Q-ΔR393 (SEQ ID NO: 20), AT-N135Q-ΔS394 (SEQ ID NO: 22) is measured in pentasaccharide containing plasma. The plasma concentrations of pentasaccharides are defined on the basis on those measured in patients treated by the pentasaccharide under the conditions of a regular (curative) use of this molecule or in patients presenting an overdose of this drug, knowing that the optimal equilibrium concentration is 1.20-1.26 mg/L and the minimal equilibrium concentration is 0.46-0.62 mg/L during a curative pentasaccharide treatment (monograph, Arixtra®).
The anti factor Xa assay is performed using the Rotachrom® heparin method (Stago) adaptated for absorbance reading on a microplate reader (Dynatech MR 5000), or a STA analyser (Stago).
The procedure consists in mixing 30 μl of pentasaccharide containing plasma sample diluted four times in kinetic buffer, with 75 μl of chromogenic substrate (1 mM, provided in Rotachrom® heparin kit). After 4 min incubation, 75 μl of bovine factor Xa (24 nM, Rotachrom® heparin kit) is added to the plasma-substrate mixture. The factor Xa activity is measured a 405 nm absorbance increase, resulting from cleavage of the chromogenic substrate, using a microplate reader (Dynatech MR 5000). The rate constant (k), proportional to anti-factor Xa activity, is obtained by fitting the substrate hydrolysis curve to equation (3) or (3′).
Firstly, the assay is calibrated in citrated (0.105 M) normal human plasma containing pentasaccharide concentrations ranging from 0 to 3 mg/L. A standard curve is generated and anti-factor Xa activity is expressed as mg of pentasaccharide per liter of plasma.
Secondly, to evaluate the anti factor Xa inhibitory activity of mutated antithrombins, the mutated antithrombin (0-0.6 g/L, preferably 0.15-0.6 g/L, final concentration, in kinetic buffer) is pre-incubated with an equal volume of pentasaccharide (0-3 mg/L, preferably 1-3 mg/L) containing plasma samples, during 30 min at 37° C.
Under these conditions, the mutated antithrombin concentration range from one to four times that of the plasma antithrombin level, which is compatible with a therapeutic use of antithrombin. Indeed, very high doses of mutated antithrombin, with a 5 fold increase in plasma antithrombin level, have already been used during clinical trials without side effects (Leitner J M, Firbas C, Mayr F B, Reiter R A, Steinlechner B, Jilma B., Recombinant human antithrombin inhibits thrombin formation and interleukin 6 release in human endotoxemia. Clin Pharmacol Ther. 2006 January; 79(1):23-34). Anti factor Xa inhibitory activity is then evaluated as previously described.
To estimate whether mutated antithrombin can be used as reversal of pentasaccharide in case of over-dosing, AT-N135Q-R393H(SEQ ID NO: 14) and AT-N135Q-Pro394 (SEQ ID NO: 16) are tested in Rotachrom® heparin assay for their ability to restore factor Xa activity. Under conditions of treatment for prevention of venous thromboembolic events, optimal pentasaccharide concentration ranges between 1.2 and 1.26 μg/mL in plasma. To mimic an over-dosing, pentasaccharide is added to human plasma pool at concentration of 3 μg/ml. Rotachrom® heparin assay is then performed by incubation of plasma over-dosed with pentasaccharide in the presence of mutated antithrombin in a ratio 1/1, 2/1, and 4/1 compared to plasma antithrombin concentration (i.e. 0.15, 0.3, 0.6 g/l). In this ex vivo assay, anti-factor Xa activity is proportional to the amount of pentasaccharide bound natural antithrombin present in tested plasma, which amount is directly proportional to pentasaccharide concentration in plasma. […]

Experiment [2] relates to pentasaccharide bound murine antithrombin (plasma anti-Xa activity). Put plainly: Anti factor Xa assay in mouse plasma supplemented with Fondaparinux. The class given is biochemical. As for the experimental part: During the animal experimentation (see detailed protocol below), human mutated antithrombins compete with murine antithrombin for their binding to the pentasaccharide. Thus, preliminary in vitro assays are performed to determine the human mutated antithrombin concentration necessary to compete with the murine antithrombin present in mouse plasma supplemented with Fondaparinux.
These experiments are performed as described in section II-b, using mouse plasma instead of human plasma.

Turning to “AT-R393H: human antithrombin (SEQ ID NO:2) with substitution of the amino acid at position 393 by Histidine”, the “effect on anti-Xa activity of pentasaccharide containing plasma sample” value in experiment [1] was “significant decrease”. Also, the “effect on anti-Xa activity of pentasaccharide contained in mouse plasma” value (shortened to “effect on anti-Xa activity … in mouse plasma”) in experiment [2] is “significant decrease”.

B1: AT-N135Q-ΔR393-S394: human antithrombin with deletion of positions 393 and 394 and substitution at 135 by Glutamine (protein, listed as Homo sapiens)
chain: HGSPVDICTAKPRDIPMNPMCIYRSPEKKATEDEGSEQKIPEATNRRVWELSKANSRFATTFYQHLADSKNDNDNIFLSPLSISTAFAMTKLGACNDTLQQLMEVFKFDTISEKTSDQIHFFFAKLNCRLYRKAQKSSKLVSANRLFGDKSLTFNETYQDISELVYGAKLQPLDFKENAEQSRAAINKWVSNKTEGRITDVIPSEAINELTVLVLVNTIYFKGLWKSKFSPENTRKELFYKADGESCSASMMYQEGKFRYRRVAEGTQVLELPFKGDDITMVLILPKPEKSLAKVEKELTPEVLQEWLDELEEMMLVVHMPRFRIEDGFSLKEQLQDMGLVDLFSPEKSKLPGIVAEGRDDLYVSDAFHKAFLEVNEEGSEAAASTAVVIAGLNPNRVTFKANRPFLVFIREVPLNTIIFMGRVANPCVK
Regarding B1, in experiment [1], the “effect on anti-Xa activity of pentasaccharide containing plasma sample” value is “significant decrease”. In addition, the “effect on anti-Xa activity … in mouse plasma” value in experiment [2] is given as “significant decrease”.

B2: AT-ΔR393-S394: human antithrombin with deletion of the amino acids at positions 393 and 394 (protein, listed as Homo sapiens)
chain: HGSPVDICTAKPRDIPMNPMCIYRSPEKKATEDEGSEQKIPEATNRRVWELSKANSRFATTFYQHLADSKNDNDNIFLSPLSISTAFAMTKLGACNDTLQQLMEVFKFDTISEKTSDQIHFFFAKLNCRLYRKANKSSKLVSANRLFGDKSLTFNETYQDISELVYGAKLQPLDFKENAEQSRAAINKWVSNKTEGRITDVIPSEAINELTVLVLVNTIYFKGLWKSKFSPENTRKELFYKADGESCSASMMYQEGKFRYRRVAEGTQVLELPFKGDDITMVLILPKPEKSLAKVEKELTPEVLQEWLDELEEMMLVVHMPRFRIEDGFSLKEQLQDMGLVDLFSPEKSKLPGIVAEGRDDLYVSDAFHKAFLEVNEEGSEAAASTAVVIAGLNPNRVTFKANRPFLVFIREVPLNTIIFMGRVANPCVK
Turning to B2, the “effect on anti-Xa activity of pentasaccharide containing plasma sample” value in experiment [1] is on record as “significant decrease”. Further, the “effect on anti-Xa activity … in mouse plasma” value in experiment [2] is “significant decrease”.

B3: AT-N135Q-ΔR393: human antithrombin with deletion of position 393 and substitution at 135 by Glutamine (protein, listed as Homo sapiens)
chain: HGSPVDICTAKPRDIPMNPMCIYRSPEKKATEDEGSEQKIPEATNRRVWELSKANSRFATTFYQHLADSKNDNDNIFLSPLSISTAFAMTKLGACNDTLQQLMEVFKFDTISEKTSDQIHFFFAKLNCRLYRKAQKSSKLVSANRLFGDKSLTFNETYQDISELVYGAKLQPLDFKENAEQSRAAINKWVSNKTEGRITDVIPSEAINELTVLVLVNTIYFKGLWKSKFSPENTRKELFYKADGESCSASMMYQEGKFRYRRVAEGTQVLELPFKGDDITMVLILPKPEKSLAKVEKELTPEVLQEWLDELEEMMLVVHMPRFRIEDGFSLKEQLQDMGLVDLFSPEKSKLPGIVAEGRDDLYVSDAFHKAFLEVNEEGSEAAASTAVVIAGSLNPNRVTFKANRPFLVFIREVPLNTIIFMGRVANPCVK
For B3, the “effect on anti-Xa activity of pentasaccharide containing plasma sample” value in experiment [1] is “significant decrease”. Moreover, in experiment [2], the “effect on anti-Xa activity … in mouse plasma” value is reported as “significant decrease”.

B4: AT-ΔR393: human antithrombin with deletion of the amino acid at position 393 (protein, listed as Homo sapiens)
chain: HGSPVDICTAKPRDIPMNPMCIYRSPEKKATEDEGSEQKIPEATNRRVWELSKANSRFATTFYQHLADSKNDNDNIFLSPLSISTAFAMTKLGACNDTLQQLMEVFKFDTISEKTSDQIHFFFAKLNCRLYRKANKSSKLVSANRLFGDKSLTFNETYQDISELVYGAKLQPLDFKENAEQSRAAINKWVSNKTEGRITDVIPSEAINELTVLVLVNTIYFKGLWKSKFSPENTRKELFYKADGESCSASMMYQEGKFRYRRVAEGTQVLELPFKGDDITMVLILPKPEKSLAKVEKELTPEVLQEWLDELEEMMLVVHMPRFRIEDGFSLKEQLQDMGLVDLFSPEKSKLPGIVAEGRDDLYVSDAFHKAFLEVNEEGSEAAASTAVVIAGSLNPNRVTFKANRPFLVFIREVPLNTIIFMGRVANPCVK
Turning to B4, the “effect on anti-Xa activity of pentasaccharide containing plasma sample” value in experiment [1] is recorded as “significant decrease”. Also, the “effect on anti-Xa activity … in mouse plasma” value in experiment [2] is “significant decrease”.

B5: AT-ΔS394: human antithrombin with deletion of the amino acid at position 394 (protein, listed as Homo sapiens)
chain: HGSPVDICTAKPRDIPMNPMCIYRSPEKKATEDEGSEQKIPEATNRRVWELSKANSRFATTFYQHLADSKNDNDNIFLSPLSISTAFAMTKLGACNDTLQQLMEVFKFDTISEKTSDQIHFFFAKLNCRLYRKANKSSKLVSANRLFGDKSLTFNETYQDISELVYGAKLQPLDFKENAEQSRAAINKWVSNKTEGRITDVIPSEAINELTVLVLVNTIYFKGLWKSKFSPENTRKELFYKADGESCSASMMYQEGKFRYRRVAEGTQVLELPFKGDDITMVLILPKPEKSLAKVEKELTPEVLQEWLDELEEMMLVVHMPRFRIEDGFSLKEQLQDMGLVDLFSPEKSKLPGIVAEGRDDLYVSDAFHKAFLEVNEEGSEAAASTAVVIAGRLNPNRVTFKANRPFLVFIREVPLNTIIFMGRVANPCVK
B5: in experiment [1], the “effect on anti-Xa activity of pentasaccharide containing plasma sample” value is recorded as “significant decrease”. The “effect on anti-Xa activity … in mouse plasma” value in experiment [2] is listed as “significant decrease”.

B6: AT-N135Q-ΔS394: human antithrombin with deletion of position 394 and substitution at 135 by Glutamine (protein, listed as Homo sapiens)
chain: HGSPVDICTAKPRDIPMNPMCIYRSPEKKATEDEGSEQKIPEATNRRVWELSKANSRFATTFYQHLADSKNDNDNIFLSPLSISTAFAMTKLGACNDTLQQLMEVFKFDTISEKTSDQIHFFFAKLNCRLYRKAQKSSKLVSANRLFGDKSLTFNETYQDISELVYGAKLQPLDFKENAEQSRAAINKWVSNKTEGRITDVIPSEAINELTVLVLVNTIYFKGLWKSKFSPENTRKELFYKADGESCSASMMYQEGKFRYRRVAEGTQVLELPFKGDDITMVLILPKPEKSLAKVEKELTPEVLQEWLDELEEMMLVVHMPRFRIEDGFSLKEQLQDMGLVDLFSPEKSKLPGIVAEGRDDLYVSDAFHKAFLEVNEEGSEAAASTAVVIAGRLNPNRVTFKANRPFLVFIREVPLNTIIFMGRVANPCVK
As to B6, the “effect on anti-Xa activity of pentasaccharide containing plasma sample” value in experiment [1] is reported as “significant decrease”. In experiment [2], the “effect on anti-Xa activity … in mouse plasma” value is reported as “significant decrease”.

The values are drawn from patent US8741844B2, “Use of mutated antithrombins for treating or preventing coagulation disorders” (Universite Paris-Sud XI, priority 2007, dated 2014).
